From paper PMC10858898
“And” between values parts separate entries of the source, which are not always exact repeats. Identical values can stand only once.

What was measured:
[1] = molecular target: MprE7-TH1 chimeric proteusin peptide; experiment: NMR titration; unlabeled SrpI titrated into 42.1 uM 15N-labeled MprE7-TH1, MprE7-TH1:SrpI molar ratios 1:0 to 1:1, FAD at 1:1 with SrpI; 100 mM NaCl, 20 mM sodium phosphate pH 7.5, 10% D2O, 25 °C; TITAN 2D lineshape analysis, two-state binding model; apparent
[2] = molecular target: MprE7-TH1 chimeric proteusin peptide; experiment: NMR titration; unlabeled SrpI titrated into 42.1 µM 15N-MprE7-TH1, MprE7-TH1:SrpI molar ratios 1:0 to 1:1, FAD 1:1 with SrpI; 100 mM NaCl, 20 mM sodium phosphate pH 7.5, 10% D2O; 25 °C, 800 MHz; TITAN 2D lineshape analysis with a two-state binding model; apparent KD; fits of subsets of the seven residues

Row | Kd [1] | koff [1] | Kd [2] | Substance
1 | 24.9 µM | 3.7 s⁻¹ |  | SrpI brominase (flavin-dependent RiPP halogenase) (enzyme)
2 |  |  | 21.9 µM and 36.9 µM and 22 µM | SrpI brominase (enzyme)
